# Laboratory results published in US20090012270A1 (MEDICAL RESEARCH COUNCIL, published 2009).
# T1: mouse OX2 (mouse, UniProt O54901 31-278)
# T1 construct: whole, on cells; also called ligand OX2 (mouse); normally expressed mouse OX2
# T1 sequence (looked up): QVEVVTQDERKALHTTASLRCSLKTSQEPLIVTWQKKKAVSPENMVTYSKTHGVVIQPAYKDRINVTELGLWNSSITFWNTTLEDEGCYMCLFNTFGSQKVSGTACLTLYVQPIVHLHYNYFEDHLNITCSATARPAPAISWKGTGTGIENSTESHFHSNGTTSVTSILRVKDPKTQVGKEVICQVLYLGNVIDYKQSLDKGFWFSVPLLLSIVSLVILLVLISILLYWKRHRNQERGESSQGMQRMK
# Target: T1, mouse OX2
# Assay: immunoperoxidase staining of mouse spleen sections, detected with anti-human Fc
# Description: To determine function of OX2-OX2R interaction in vitro and in vivo, an adenovirus construct was prepared that produced in soluble form, the extracellular region of OX2RH1 fused to human IgG. A control construct was prepared that produced in soluble form, only the human IgG backbone. In the first instance, supernatants containing these fusion proteins were produced by cellular infection in vitro to test whether the OX2R fusion protein had biological function on the basis of binding to normally expressed mouse OX2. In the first series of studies, tissue sections of mouse spleen from normal as well as OX2-gene knockout (KO) mice, were prepared and OX2R, or control fusion proteins were added, and these reagents detected by addition of an antibody binding to the human Fc portion of the fusion protein, and subsequent immunoperoxidase staining procedures to reveal binding. Weak binding only of the OX2R fusion protein, and only in normal but not OX2 KO mice, was detected on follicular dendritic cells and endothelial cells. Both cell types are know to express very high levels of the ligand OX2.
binder,measurement,value
"human IgG-mouse OX2RH1 fusion protein (extracellular region of OX2RH1 fused to human IgG) (Fc fusion, Soluble protein from cells infected with an adenovirus construct; also called OX2R fusion protein; Ig-OX2R fusion protein; not shown: human IgG backbone with the human Fc portion) TDKNQTTQNNSSSPLTQVNTTVSVQIGTKALLCCFSIPLTKAVLITWIIKLRGLPSCTIAYKVDTKTNETSCLGRNITWASTPDHSPELQISAVTLQHEGTYTCETVTPEGNFEKNYDLQVLVPPEVTYFPEKNRSAVCEAMAGKPAAQISWSPDGDCVTTSESHSNGTVTVRSTCHWEQNNVSDVSCIVSHLTGNQSLSIELSRGGNQSLRP",binding result,binds
